Two molecules from US20250388695A1 (PROMAB BIOTECHNOLOGIES, published 2025) can be followed below.

Test [1] deals with T1, Human CD3 epsilon chain on CD3-positive T cells (human, UniProt P07766 23-207).
T1 construct: whole, on cells; also called CD3 antigen
Nature of the test: FACS on T cells.

In test [2] the target is T2, Human EPCAM (Epithelial Cell Adhesion Molecule) on EPCAM-positive Lovo cells (human, UniProt P16422 24-314).
T2 construct: whole, on cells; Endogenous EPCAM on the Lovo colon cancer cell line; also called EPCAM antigen; CD326
T2 sequence (looked up): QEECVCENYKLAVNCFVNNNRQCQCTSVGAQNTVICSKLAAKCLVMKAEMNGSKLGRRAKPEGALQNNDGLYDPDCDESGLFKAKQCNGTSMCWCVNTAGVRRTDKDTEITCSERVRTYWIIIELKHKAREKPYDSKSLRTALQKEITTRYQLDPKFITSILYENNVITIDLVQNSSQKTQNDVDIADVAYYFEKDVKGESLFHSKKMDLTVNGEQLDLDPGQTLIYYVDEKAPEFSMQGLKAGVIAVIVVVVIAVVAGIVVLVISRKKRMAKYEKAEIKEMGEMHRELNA
In words: FACS on EPCAM-positive cells.

Test [3] addresses T2, Human EPCAM (Epithelial Cell Adhesion …). Nature of the test: cell-based or functional assay.

T1 sequence (P07766 23-207): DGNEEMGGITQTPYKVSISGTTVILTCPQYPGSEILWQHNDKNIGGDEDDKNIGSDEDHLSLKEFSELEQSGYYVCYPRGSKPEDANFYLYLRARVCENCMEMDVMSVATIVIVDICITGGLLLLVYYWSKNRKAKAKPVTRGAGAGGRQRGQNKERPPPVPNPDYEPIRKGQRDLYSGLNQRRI

B1: Humanized EPCAM-CD3 bivalent CrossFAB knob-in-hole bispecific antibody PBM005 (FIG. 1A structure) (bispecific antibody)
light: EIVLTQSPATLSLSPGERATLSCSASSSISYMHWYQQKPGQAPRLLIYDTSKLATGIPARFSGSGSGTDFTLTISSLEPEDFAVYYCHQRSSYPYTFGGGTKLEIKRTVAAPSVFIFPPSDEQLKSGTASVVCLLNNFYPREAKVQWKVDNALQSGNSQESVTEQDSKDSTYSLSSTLTLSKADYEKHKVYACEVTHQGLSSPVTKSFNRGEC
chain: QAVVTQEPSLTVSPGGTVTLTCGSSTGAVTTSNYANWVQEKPGQAFRGLIGGTNKRAPGTPARFSGSLLGGKAALTLSGAQPEDEAEYYCALWYSNLWVFGGGTKLTVLSSASTKGPSVFPLAPSSKSTSGGTAALGCLVKDYFPEPVTVSWNSGALTSGVHTFPAVLQSSGLYSLSSVVTVPSSSLGTQTYICNVNHKPSNTKVDKKVEPKSC
heavy 1: not shown
heavy 2: QVQLVQSGSELKKPGASVKVSCKASGYTFTNYGMNWVRQAPGQGLEWMGWINTYTGEPTYADDFKGRFVFSLDTSVSTAYLQISSLKAEDTAVYYCARWLRDFDYWGAGTTVTVSSTKGPSVFPLAPSSKSTSGGTAALGCLVKDYFPEPVTVSWNSGALTSGVHTFPAVLQSSGLYSLSSVVTVPSSSLGTQTYICNVNHKPSNTKVDKKVEPKSCDKTHTCPPCPAPEAAGGPSVFLFPPKPKDTLMISRTPEVTCVVVDVSHEDPEVKFNWYVDGVEVHNAKTKPREEQYNSTYRVVSVLTVLHQDWLNGKEYKCKVSNKALGAPIEKTISKAKGQPREPQVCTLPPSRDELTKNQVSLSCAVKGFYPSDIAVEWESNGQPENNYKTTPPVLDSDGSFFLVSKLTVDKSRWQQGNVFSCSVMHEALHNHYTQKSLSLSPGK
notes: Four constructs co-transfected in 293S cells at 2:1:1:1; Supernatant or protein A purified antibody was used; also called EPCAM-CROSS-FAB-CD3 Knob in hole (KIH) CrossFAB format antibody; EpCAM-CD3 CrossMab knob-in-hole
Consider B1, for which the binding result in test [1] and in test [2] was “binds” in each case.

B2: Humanized EPCAM ScFv-linker-CD3 ScFv-His tag (BITE) antibody PBM0065 (FIG. 1B structure) (bispecific antibody)
scFv: QVQLVQSGSELKKPGASVKVSCKASGYTFTNYGMNWVRQAPGQGLEWMGWINTYTGEPTYADDFKGRFVFSLDTSVSTAYLQISSLKAEDTAVYYCARWLRDFDYWGAGTTVTVSSGGGGSGGGGSGGGGSEIVLTQSPATLSLSPGERATLSCSASSSISYMHWYQQKPGQAPRLLIYDTSKLATGIPARFSGSGSGTDFTLTISSLEPEDFAVYYCHQRSSYPYTFGGGTKLEIKGGGGSGGGGSGGGGSEVQLLESGGGLVQPGGSLRLSCAASGFTFSTYAMNWVRQAPGKGLEWVSRIRSKYNNYATYYADSVKGRFTISRDDSKNTLYLQMNSLRAEDTAVYYCVRHGNFGNSYVSWFAYWGQGTLVTVSSGGGGSGGGGSGGGGSQAVVTQEPSLTVSPGGTVTLTCGSSTGAVTTSNYANWVQEKPGQAFRGLIGGTNKRAPGTPARFSGSLLGGKAALTLSGAQPEDEAEYYCALWYSNLWVFGGGTKLTVLHHHHHH
In the case of B2, the “EC50 based on IFN-gamma secretion” value in test [3] is 5.28 ng/mL.
